Earlier results in PMC4329993.

Molecular target: GLP-1 receptor (Homo sapiens) (UniProt P43220)
Sequence of UniProt P43220 (P43220 24-463): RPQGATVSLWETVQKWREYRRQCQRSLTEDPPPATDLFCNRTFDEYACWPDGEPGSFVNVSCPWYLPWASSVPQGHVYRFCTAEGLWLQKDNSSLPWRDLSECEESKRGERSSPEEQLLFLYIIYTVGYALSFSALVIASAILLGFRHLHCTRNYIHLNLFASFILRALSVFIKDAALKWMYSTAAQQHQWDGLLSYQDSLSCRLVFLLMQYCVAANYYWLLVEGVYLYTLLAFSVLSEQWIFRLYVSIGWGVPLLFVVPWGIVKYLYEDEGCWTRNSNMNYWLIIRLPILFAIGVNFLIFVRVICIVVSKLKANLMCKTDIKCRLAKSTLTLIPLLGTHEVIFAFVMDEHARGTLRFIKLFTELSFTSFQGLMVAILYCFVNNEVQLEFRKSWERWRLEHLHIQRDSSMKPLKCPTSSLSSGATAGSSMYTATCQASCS

Sequence of GLP-1 (P01275 98-127): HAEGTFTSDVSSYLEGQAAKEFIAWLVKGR

GLP-1 (from UniProt P01275)
Kd: 300 pM
